This is an account of results in patent US20180346564A1 (TEIJIN PHARMA, published 2018).

To fix the notation:
B1: humanized antibody L46H11 (antibody, human IgG1, kappa)
heavy: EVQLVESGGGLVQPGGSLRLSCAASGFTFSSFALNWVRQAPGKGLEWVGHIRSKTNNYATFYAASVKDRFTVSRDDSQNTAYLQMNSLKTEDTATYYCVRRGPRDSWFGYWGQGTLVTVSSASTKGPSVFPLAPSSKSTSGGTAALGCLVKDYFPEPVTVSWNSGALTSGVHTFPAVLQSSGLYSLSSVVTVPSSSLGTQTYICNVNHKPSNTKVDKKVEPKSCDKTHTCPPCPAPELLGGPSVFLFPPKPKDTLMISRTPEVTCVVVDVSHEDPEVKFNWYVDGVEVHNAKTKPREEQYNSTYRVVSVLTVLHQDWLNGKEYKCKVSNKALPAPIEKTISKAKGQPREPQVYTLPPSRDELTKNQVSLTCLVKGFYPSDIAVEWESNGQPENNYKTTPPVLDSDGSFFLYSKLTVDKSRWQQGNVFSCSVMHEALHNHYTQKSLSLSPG
light: DIVMTQSPLSLPVTLGEPASISCRSSQSIVHSNGNTYLEWYLQKPGQSPQLLIYTVSNRFSGVPDRFSGSGSGTDFTLKISRVEAEDLGVYYCFQGSHLPLTFGGGTKVEIKRTVAAPSVFIFPPSDEQLKSGTASVVCLLNNFYPREAKVQWKVDNALQSGNSQESVTEQDSKDSTYSLSSTLTLSKADYEKHKVYACEVTHQGLSSPVTKSFNRGEC
B2: humanized antibody L47H11 (antibody, human IgG1, kappa, V domains shown)
VH: EVQLVESGGGLVQPGGSLRLSCAASGFTFSSFALNWVRQAPGKGLEWVGHIRSKTNNYATFYAASVKDRFTVSRDDSQNTAYLQMNSLKTEDTATYYCVRRGPRDSWFGYWGQGTLVTVSS
VL: DIVMTQSPLSLPVTLGDPASISCRSSQSIVHSNGNTYLEWYQQKPGQSPQRLIYTVSNRFSGVPDRFSGSGSGTDFTLKISRVEAEDLGVYYCFQGSHLPLTFGGGTKVEIKR
notes: VL47/VH11, human IgG1/kappa
B3: humanized antibody L47H65 (antibody, human IgG1, kappa, V domains shown)
VH: B2 VH with T28A, S30N, G49V
VL: B2 VL

Numbering of substitutions follows the chain as printed. [ ]: non-standard residue; d: D form. pT = C[C@@H](OP(=O)(O)O)[C@H](N)C(=O)O; pS = N[C@@H](COP(=O)(O)O)C(=O)O

One test addresses T1, Peptide No. 4, pT212/pS214, H-GCGSPGTPGSRSR(pT)P(pS)LPTPPTREPK-OH (human, phosphothreonine (pT) at peptide position 14 (tau Thr212); phosphoserine (pS) at peptide position 16 (tau Ser214)).
T1 peptide: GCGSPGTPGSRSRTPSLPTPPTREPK
Nature of the test: ELISA, coated peptide. A digest of the protocol: (§1)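 Antibody binding was taken as the absorbance signal. Plates coated with peptides or their bovine serum albumin or keyhole limpet hemocyanin conjugates (1 μg/mL in cold PBS, 50 μL/well, overnight at 4 °C) and blocked with 3% BSA-PBS overnight at 4 °C were incubated with purified antibody at 150 ng/mL for 90 minutes at room temperature. Detection used alkaline phosphatase-labelled goat anti-human IgG (H+L) at 2000-fold dilution for 60 minutes, with pNPP developed for 40 minutes and read at 405 nm (reference 550 nm).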
In the case of B1, the binding result was “no binding (tested: OD value <0.5; antibody 150 ng/mL)”.
As for B2, the binding result is listed as “no binding (tested: OD value <0.5; antibody 150 ng/mL)”.
Same read-out and setting: as for B3, the entry is “no binding (tested: OD value <0.5; antibody 150 ng/mL)”.

The target of a further test is T2, Peptide No. 3, pS202, H-SSPG(pS)PGTPC-OH (human, SMILES C[C@@H](O)[C@H](NC(=O)CNC(=O)[C@@H]1CCCN1C(=O)[C@H](COP(=O)(O)O)NC(=O)CNC(=O)[C@@H]1CCCN1C(=O)[C@H](CO)NC(=O)[C@@H](N)CO)C(=O)N1CCC[C@H]1C(=O)N[C@@H](CS)C(=O)O).
T2 peptide: H-SSPG[pS]PGTPC-OH
Nature of the test: ELISA, coated peptide. A digest of the protocol: as §1
Background: In an ELISA, binding on a coated surface is turned into a signal by an enzyme label.
Regarding B1, the binding result was “no binding (tested: OD value <0.5; antibody 150 ng/mL)”.
On the same count and under the same terms, under B2 stands “no binding (tested: OD value <0.5; antibody 150 ng/mL)”; under B3, “no binding (tested: OD value <0.5; antibody 150 ng/mL)”.

Another test addresses T3, Peptide No. 5, pT217, H-GC-GSRSRTPSLP(pT)PPTREPKKVAVV-OH (human, phosphothreonine (pT) at peptide position 13 (tau Thr217)).
T3 peptide: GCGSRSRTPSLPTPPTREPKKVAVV
Nature of the test: ELISA, coated peptide. The essentials:
as §1
Take B1: the binding result is recorded as “no binding (tested: OD value <0.5; antibody 150 ng/mL)”.
On the same count and under the same terms, as for B2, the entry is “no binding (tested: OD value <0.5; antibody 150 ng/mL)”.
Same read-out and setting: under B3 stands “no binding (tested: OD value <0.5; antibody 150 ng/mL)”.

Another test has as its target T4, Peptide No. 1, pS46, H-GLKE(pS)PLQT-OH (human, SMILES CC(C)C[C@H](NC(=O)CN)C(=O)N[C@@H](CCCCN)C(=O)N[C@@H](CCC(=O)O)C(=O)N[C@@H](COP(=O)(O)O)C(=O)N1CCC[C@H]1C(=O)N[C@@H](CC(C)C)C(=O)N[C@@H](CCC(N)=O)C(=O)N[C@H](C(=O)O)[C@@H](C)O).
T4 peptide: H-GLKE[pS]PLQT-OH
Nature of the test: ELISA, coated peptide. The essentials:
as §1
On to B1, for which the binding result is “no binding (tested: OD value <0.5; antibody 150 ng/mL)”.
On the same count and under the same terms, under B2 stands “no binding (tested: OD value <0.5; antibody 150 ng/mL)”; under B3, “no binding (tested: OD value <0.5; antibody 150 ng/mL)”.

The next test addresses T5, Peptide No. 6, pT231, H-KVAVVR(pT)PPKSPS-OH (human).
T5 peptide: H-KVAVVR[pT]PPKSPS-OH
Nature of the test: ELISA, coated peptide. A digest of the protocol:
as §1
For the molecule B1, the binding result is given as “no binding (tested: OD value <0.5; antibody 150 ng/mL)”.
Same read-out and setting: as for B2, the entry is “no binding (tested: OD value <0.5; antibody 150 ng/mL)”.
On the same count and under the same terms, under B3 stands “no binding (tested: OD value <0.5; antibody 150 ng/mL)”.

The next test concerns the target T6, Peptide No. 8, pS412, H-NV(pS)STGSC-OH (human, SMILES CC(C)[C@H](NC(=O)[C@@H](N)CC(N)=O)C(=O)N[C@@H](COP(=O)(O)O)C(=O)N[C@@H](CO)C(=O)N[C@H](C(=O)NCC(=O)N[C@@H](CO)C(=O)N[C@@H](CS)C(=O)O)[C@@H](C)O).
T6 peptide: H-NV[pS]STGSC-OH
Nature of the test: ELISA, coated peptide. A digest of the protocol: as §1
Turning to B1, the binding result was “no binding (tested: OD value <0.5; antibody 150 ng/mL)”.
In the case of B2, the binding result was “no binding (tested: OD value <0.5; antibody 150 ng/mL)”.
Same read-out and setting: as for B3, the entry is “no binding (tested: OD value <0.5; antibody 150 ng/mL)”.

A further test addresses T7, Peptide No. 2, pS199, H-SGYS(pS)PGSPGC-OH (human, SMILES N[C@@H](CO)C(=O)NCC(=O)N[C@@H](Cc1ccc(O)cc1)C(=O)N[C@@H](CO)C(=O)N[C@@H](COP(=O)(O)O)C(=O)N1CCC[C@H]1C(=O)NCC(=O)N[C@@H](CO)C(=O)N1CCC[C@H]1C(=O)NCC(=O)N[C@@H](CS)C(=O)O).
T7 peptide: H-SGYS[pS]PGSPGC-OH
Nature of the test: ELISA, coated peptide. The essentials:
as §1
For B1, the binding result is “no binding (tested: OD value <0.5; antibody 150 ng/mL)”.
Same read-out and setting: as for B2, the entry is “no binding (tested: OD value <0.5; antibody 150 ng/mL)”.
For B3, the binding result was “no binding (tested: OD value <0.5; antibody 150 ng/mL)”.

The next test addresses T8, Peptide No. 7, pS396/pS400/pS404, H-GC-RENAKAKTDHGAEIVYK(pS)PVV(pS)GDT(pS)PRHL-OH (human, phosphoserine (pS) at peptide positions 20, 24 and 28 (tau Ser396, Ser400, Ser404)).
T8 peptide: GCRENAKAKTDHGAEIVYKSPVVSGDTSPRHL
Description: ELISA, coated peptide. A digest of the protocol: as §1
On to B1, for which the binding result is recorded as “no binding (tested: OD value <0.5; antibody 150 ng/mL)”.
Regarding B2, the binding result is given as “no binding (tested: OD value <0.5; antibody 150 ng/mL)”.
On the same count and under the same terms, under B3 stands “no binding (tested: OD value <0.5; antibody 150 ng/mL)”.

The next test deals with T9, His-tagged non-phosphorylated tau protein 4R0N (human, UniProt P10636 2-758).
T9 construct: Produced by Escherichia coli; negative control in SPR; also called ATGen Cat. No. ATGP0795
T9 sequence (P10636 other isoform, or with tags, fused parts or gaps limits assumed): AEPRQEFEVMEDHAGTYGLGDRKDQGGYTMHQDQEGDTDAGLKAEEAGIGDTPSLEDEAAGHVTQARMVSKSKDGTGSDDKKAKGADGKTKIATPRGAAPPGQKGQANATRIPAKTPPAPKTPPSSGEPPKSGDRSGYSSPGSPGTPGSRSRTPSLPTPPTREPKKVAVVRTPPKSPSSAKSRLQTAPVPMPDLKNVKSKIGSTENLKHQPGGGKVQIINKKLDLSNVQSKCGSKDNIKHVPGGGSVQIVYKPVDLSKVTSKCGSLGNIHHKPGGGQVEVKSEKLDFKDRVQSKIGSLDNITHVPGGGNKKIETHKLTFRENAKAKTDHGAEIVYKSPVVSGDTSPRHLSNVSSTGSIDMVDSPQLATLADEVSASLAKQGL
Nature of the test: SPR Biacore T200, antigen immobilized. The procedure:
The binding affinities of the hyperphosphorylated tau protein 4R2N (hpTau), non-phosphorylated tau protein 4R0N, monophosphorylated tau peptide 1×P, triphosphorylated tau peptide 3×P, and non-phosphorylated tau peptide Non P with each antibody were measured with an SPR system Biacore T200 (GE Healthcare Japan), in accordance with the instruction manual for evaluation attached to the system.
The His-tagged hpTau or Tau proteins were each immobilized on a sensor chip using an HBS-N buffer (code No. BR-1003-69) as the immobilization reaction solution and allowing a nickel chloride solution to react with the NTA sensor chip for bonding Ni to NTA. Subsequently, the sensor chip was activated with a mixed solution of N-ethyl-N′-(3-dimethylaminopropyl)-carbodiimide hydrochloride (1-ethyl-3-(3-dimethylaminopropyl)carbodiimide hydrochloride: EDC) and N-hydroxysuccinimide (NHS). A solution of each of the His-tagged proteins, adjusted to a concentration of 100 to 500 ng/mL with a 4-(2-hydroxyethyl)-1-piperazineethanesulfonic acid (HEPES) buffer (0.01 M HEPES, 150 mM KCl, 2 mM DTT, 1 mM EDTA, pH 7.2), was applied to the sensor chip, whereby the protein was immobilized on the sensor chip through covalent bonds with the Ni-NTA. The remaining active NHS was blocked with ethanolamine, and Ni ions were removed with an EDTA solution (Ni-affinity amine coupling: see International Publication No. WO2005/022156). The antigen peptides (1×P, 3×P, and Non P) were each immobilized on a sensor chip by activating the NTA sensor chip with a mixed solution of N-ethyl-N′-(3-dimethylaminopropyl)-carbodiimide (EDC) hydrochloride and N-hydroxysuccinimide (NHS), and then applying a solution of the antigen peptide diluted with a 10 mM sodium acetate buffer (pH: 4 to 4.5) to 1 to 10 μM to the sensor chip, whereby the peptide was covalently bound to the sensor chip. The remaining active NHS was blocked with ethanolamine. Thus, sensor chips immobilized respectively with the proteins and peptides mentioned above were produced.
A CAPS buffer (pH 10.5) was applied to these sensor chips at 37° C. to stabilize the protein- or peptide-immobilized surfaces of the sensor chips.
For B1, the binding result is “no binding (tested: 0.2 to 1 nM)”.
Same read-out and setting: as for B2, the entry is “no binding (tested: 0.2 to 1 nM)”; as for B3, “no binding (tested: 0.2 to 1 nM)”.
